Columns and labels:
[1] = molecular target: K48-linked IQF (internally quenched fluorescence) diubiquitin substrate DiUb48-6 (UniProt P0CG48); assay: other fluorescence titration
[2] = molecular target: K48-linked IQF (internally quenched fluorescence) diubiquitin substrate DiUb48-6 (UniProt P0CG48); assay: stopped-flow fluorescence

Kd [1]: 270 nM | K1 (association constant of the first step) [2]: 2.33 µM⁻¹ | K2 (equilibrium constant of the second step) [2]: 0.59 | Kd from a fit to a single exponential function [2]: 2420 nM | k1 (first step, association) [2]: 140000 M⁻¹ s⁻¹ | k−1 (first step, dissociation) [2]: 0.06 s⁻¹ | maximum of kobs,2 [2]: 0.57 s⁻¹ | y-intercept of the linear regression of kobs,1 [2]: 0.63 s⁻¹
B1: C276A USP2 catalytic core (inactive active-site mutant) (domain or fragment)
chain: NSKSAQGLAGLRNLGNTAFMNSILQCLSNTRELRDYCLQRLYMRDLHHGSNAHTALVEEFAKLIQTIWTSSPNDVVSPSEFKTQIQRYAPRFVGYNQQDAQEFLRFLLDGLHNEVNRVTLRPKSNPENLDHLPDDEKGRQMWRKYLEREDSRIGDLFVGQLKSSLTCTDCGYCSTVFDPFWDLSLPIAKRGYPEVTLMDCMRLFTKEDVLDGDEKPTCCRCRGRKRCIKKFSIQRFPKILVLHLKRFSESRIRTSKLTTFVNFPLRDLDLREFASENTNHAVYNLYAVSNHSGTTMGGHYTAYCRSPGTGEWHTFNDSSVTPMSSSQVRTSDAYLLFYELASPPSRM

From article PMC3617563
